B1: Proto-oncogene vav (Homo sapiens), P15498 (parent)
chain: MELWRQCTHWLIQCRVLPPSHRVTWDGAQVCELAQALRDGVLLCQLLNNLLPHAINLREVNLRPQMSQFLCLKNIRTFLSTCCEKFGLKRSELFEAFDLFDVQDFGKVIYTLSALSWTPIAQNRGIMPFPTEEESVGDEDIYSGLSDQIDDTVEEDEDLYDCVENEEAEGDEIYEDLMRSEPVSMPPKMTEYDKRCCCLREIQQTEEKYTDTLGSIQQHFLKPLQRFLKPQDIEIIFINIEDLLRVHTHFLKEMKEALGTPGAANLYQVFIKYKERFLVYGRYCSQVESASKHLDRVAAAREDVQMKLEECSQRANNGRFTLRDLLMVPMQRVLKYHLLLQELVKHTQEAMEKENLRLALDAMRDLAQCVNEVKRDNETLRQITNFQLSIENLDQSLAHYGRPKIDGELKITSVERRSKMDRYAFLLDKALLICKRRGDSYDLKDFVNLHSFQVRDDSSGDRDNKKWSHMFLLIEDQGAQGYELFFKTRELKKKWMEQFEMAISNIYPENATANGHDFQMFSFEETTSCKACQMLLRGTFYQGYRCHRCRASAHKECLGRVPPCGRHGQDFPGTMKKDKLHRRAQDKKRNELGLPKMEVFQEYYGLPPPPGAIGPFLRLNPGDIVELTKAEAEQNWWEGRNTSTNEIGWFPCNRVKPYVHGPPQDLSVHLWYAGPMERAGAESILANRSDGTFLVRQRVKDAAEFAISIKYNVEVKHIKIMTAEGLYRITEKKAFRGLTELVEFYQQNSLKDCFKSLDTTLQFPFKEPEKRTISRPAVGSTKYFGTAKARYDFCARDRSELSLKEGDIIKILNKKGQQGWWRGEIYGRVGWFPANYVEEDYSEYC
partner: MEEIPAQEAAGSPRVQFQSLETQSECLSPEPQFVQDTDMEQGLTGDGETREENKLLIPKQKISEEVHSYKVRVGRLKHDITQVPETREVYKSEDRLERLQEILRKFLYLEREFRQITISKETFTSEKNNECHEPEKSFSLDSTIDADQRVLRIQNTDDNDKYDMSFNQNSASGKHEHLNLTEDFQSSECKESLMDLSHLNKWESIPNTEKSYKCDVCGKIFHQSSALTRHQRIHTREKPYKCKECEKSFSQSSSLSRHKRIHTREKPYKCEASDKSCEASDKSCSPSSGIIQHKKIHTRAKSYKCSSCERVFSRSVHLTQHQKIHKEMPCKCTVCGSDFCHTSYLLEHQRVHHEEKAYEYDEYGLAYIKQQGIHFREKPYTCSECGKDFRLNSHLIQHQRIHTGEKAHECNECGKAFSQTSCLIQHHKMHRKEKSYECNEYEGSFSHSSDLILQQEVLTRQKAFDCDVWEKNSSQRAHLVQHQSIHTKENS

Variants of: B1
Settings: with zn655_human ZNF655, Q8N720

| effect of a mutation on the interaction | Variant |
| --- | --- |
| decreasing interaction | P833L |
| decreasing interaction | Y836F |

— IntAct's records for PubMed 15558030
